# Assay results reported in PMC9992855, “Functional polyamine metabolic enzymes and pathways encoded by the virosphere” (Proceedings of the National Academy of Sciences of the …, 2023).
# System: N=C(N)NCCC[C@H](N)C(=O)O
# Test: purified protein
# Conditions: 27 °C
# From the text: decarboxylase activity assay on Ca. Fonsibacter ubiquis "ODC" (ODC/ADC)
substance,measurement,value
"Ca. Fonsibacter ubiquis ""ODC"" (ODC/ADC) (unidentified)",Km,1300 ± 120 µM
same,kcat,2.2 ± 0.13 s⁻¹
same,kcat/Km,1700 ± 91 M⁻¹ s⁻¹
